Test results from the supplement of paper PMC9112550, “Optimization of the antimicrobial peptide Bac7 by deep mutational scanning” (BMC Biology, 2022).

Each sequence was assayed on Escherichia coli TOP10 (assay: shrunken log2 fold change of peptide-encoding DNA abundance (4.5 h post-induction vs induction); higher = less antimicrobial activity (less host growth inhibition)). Conditions: time post-induction: 4.5 h; library: site-saturation at positions 5, 18, 19, 20.
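Further: peptides expressed intracellularly from a pBAD plasmid library in pooled LB shake-flask culture, induced with 0.3% L-arabinose, DNA abundance read by NGS, three biological replicates, DESeq2 with apeglm shrinkage.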

Which “shrunken log2 fold change” value does the source give for RRIRPRPPRLPRPRPRPWTHPRP here?
The value was -0.0188.

For RRIRMRPPRLPRPRPRPQMKPRP, which “shrunken log2 fold change” value is on record?
The value was 0.518.

With RRIRCRPPRLPRPRPRPTWGPRP as the sequence, how does the “shrunken log2 fold change” value read?
Its value is 0.301.

Which “shrunken log2 fold change” value does the source give for RRIRQRPPRLPRPRPRPLWFPRP here?
Its value is -0.0512.

Which “shrunken log2 fold change” value does the source give for RRIRARPPRLPRPRPRPGATPRP here?
Its value is 0.959.

With RRIRSRPPRLPRPRPRPLIIPRP as the sequence, how does the “shrunken log2 fold change” value read?
The value was -0.678.

How did the “shrunken log2 fold change” value turn out when RRIRGRPPRLPRPRPRPWYSPRP was run?
Its value is -0.471.

For RRIRHRPPRLPRPRPRPWMGPRP, which “shrunken log2 fold change” value is on record?
The value was -0.205.

RRIRYRPPRLPRPRPRPFYMPRP was tested. Which “shrunken log2 fold change” value did it give?
The value was -0.258.

How did the “shrunken log2 fold change” value turn out when RRIRHRPPRLPRPRPRPQALPRP was run?
Its value is -0.278.

How did the “shrunken log2 fold change” value turn out when RRIRSRPPRLPRPRPRPFQEPRP was run?
Its value is -0.0528.

How did the “shrunken log2 fold change” value turn out when RRIRRRPPRLPRPRPRPGQWPRP was run?
Its value is 0.312.

How did the “shrunken log2 fold change” value turn out when RRIRCRPPRLPRPRPRPSQCPRP was run?
The value was -0.548.

RRIRTRPPRLPRPRPRPSMYPRP was tested. Which “shrunken log2 fold change” value did it give?
Its value is -0.39.

For RRIRMRPPRLPRPRPRPMHSPRP, which “shrunken log2 fold change” value is on record?
The value was 0.126.

RRIRRRPPRLPRPRPRPGQEPRP was tested. Which “shrunken log2 fold change” value did it give?
The value was 0.777.

With RRIRHRPPRLPRPRPRPKFAPRP as the sequence, how does the “shrunken log2 fold change” value read?
The value was 0.00298.

Which “shrunken log2 fold change” value does the source give for RRIRLRPPRLPRPRPRPLWFPRP here?
The value was -0.543.

How did the “shrunken log2 fold change” value turn out when RRIRFRPPRLPRPRPRPDTPPRP was run?
Its value is 1.5.

Which “shrunken log2 fold change” value does the source give for RRIRRRPPRLPRPRPRPCERPRP here?
Its value is 0.137.

How did the “shrunken log2 fold change” value turn out when RRIRSRPPRLPRPRPRPNEPPRP was run?
The value was -0.0883.

How did the “shrunken log2 fold change” value turn out when RRIRHRPPRLPRPRPRPEVPPRP was run?
Its value is -0.00339.

Which “shrunken log2 fold change” value does the source give for RRIRPRPPRLPRPRPRPGWDPRP here?
Its value is 0.011.

With RRIRVRPPRLPRPRPRPTVIPRP as the sequence, how does the “shrunken log2 fold change” value read?
The value was -0.127.

For RRIRDRPPRLPRPRPRPCAHPRP, which “shrunken log2 fold change” value is on record?
The value was 0.07.

RRIRTRPPRLPRPRPRPSNMPRP was tested. Which “shrunken log2 fold change” value did it give?
The value was -0.851.

With RRIRMRPPRLPRPRPRPQTIPRP as the sequence, how does the “shrunken log2 fold change” value read?
The value was 0.414.

With RRIRERPPRLPRPRPRPQAYPRP as the sequence, how does the “shrunken log2 fold change” value read?
The value was -0.131.

RRIRDRPPRLPRPRPRPIAQPRP was tested. Which “shrunken log2 fold change” value did it give?
The value was -0.0679.

With RRIRRRPPRLPRPRPRPALFPRP as the sequence, how does the “shrunken log2 fold change” value read?
Its value is 0.128.

With RRIRSRPPRLPRPRPRPWFRPRP as the sequence, how does the “shrunken log2 fold change” value read?
The value was 0.212.

Which “shrunken log2 fold change” value does the source give for RRIRQRPPRLPRPRPRPKDLPRP here?
The value was -0.0616.

For RRIRPRPPRLPRPRPRPRTHPRP, which “shrunken log2 fold change” value is on record?
Its value is 0.107.

Which “shrunken log2 fold change” value does the source give for RRIRVRPPRLPRPRPRPTACPRP here?
The value was -0.124.

For RRIRFRPPRLPRPRPRPSLIPRP, which “shrunken log2 fold change” value is on record?
Its value is -1.06.

For RRIRTRPPRLPRPRPRPPREPRP, which “shrunken log2 fold change” value is on record?
The value was 0.141.

How did the “shrunken log2 fold change” value turn out when RRIRNRPPRLPRPRPRPSIRPRP was run?
The value was -0.0225.

For RRIRSRPPRLPRPRPRPLHVPRP, which “shrunken log2 fold change” value is on record?
The value was -0.245.

For RRIRARPPRLPRPRPRPYRIPRP, which “shrunken log2 fold change” value is on record?
Its value is 0.11.

With RRIRDRPPRLPRPRPRPLSRPRP as the sequence, how does the “shrunken log2 fold change” value read?
The value was -0.113.

With RRIRSRPPRLPRPRPRPSGLPRP as the sequence, how does the “shrunken log2 fold change” value read?
The value was 0.177.

For RRIRYRPPRLPRPRPRPAYWPRP, which “shrunken log2 fold change” value is on record?
Its value is -0.029.

RRIRARPPRLPRPRPRPLMGPRP was tested. Which “shrunken log2 fold change” value did it give?
Its value is 0.489.

For RRIRMRPPRLPRPRPRPLYQPRP, which “shrunken log2 fold change” value is on record?
The value was -0.38.

With RRIRMRPPRLPRPRPRPFQTPRP as the sequence, how does the “shrunken log2 fold change” value read?
Its value is 0.00707.

With RRIRIRPPRLPRPRPRPNFLPRP as the sequence, how does the “shrunken log2 fold change” value read?
The value was -0.677.

With RRIRCRPPRLPRPRPRPGLEPRP as the sequence, how does the “shrunken log2 fold change” value read?
Its value is 0.203.

Which “shrunken log2 fold change” value does the source give for RRIRFRPPRLPRPRPRPEPVPRP here?
The value was 0.326.

How did the “shrunken log2 fold change” value turn out when RRIRERPPRLPRPRPRPVLMPRP was run?
Its value is 0.0559.

For RRIRVRPPRLPRPRPRPLEVPRP, which “shrunken log2 fold change” value is on record?
The value was 0.0693.

How did the “shrunken log2 fold change” value turn out when RRIRVRPPRLPRPRPRPSAKPRP was run?
Its value is -0.354.

RRIRARPPRLPRPRPRPRWQPRP was tested. Which “shrunken log2 fold change” value did it give?
The value was 0.361.

RRIRLRPPRLPRPRPRPAYTPRP was tested. Which “shrunken log2 fold change” value did it give?
The value was -0.203.

Which “shrunken log2 fold change” value does the source give for RRIRSRPPRLPRPRPRPKWLPRP here?
The value was 0.104.

For RRIRYRPPRLPRPRPRPARSPRP, which “shrunken log2 fold change” value is on record?
Its value is 0.134.

RRIRARPPRLPRPRPRPNGFPRP was tested. Which “shrunken log2 fold change” value did it give?
The value was 0.113.

For RRIRCRPPRLPRPRPRPIITPRP, which “shrunken log2 fold change” value is on record?
Its value is -0.892.

With RRIRTRPPRLPRPRPRPYSFPRP as the sequence, how does the “shrunken log2 fold change” value read?
Its value is -0.552.

For RRIRARPPRLPRPRPRPAKSPRP, which “shrunken log2 fold change” value is on record?
The value was 0.061.

For RRIRGRPPRLPRPRPRPENPPRP, which “shrunken log2 fold change” value is on record?
Its value is 0.842.

Which “shrunken log2 fold change” value does the source give for RRIRKRPPRLPRPRPRPMHMPRP here?
The value was -0.331.

With RRIRCRPPRLPRPRPRPWVSPRP as the sequence, how does the “shrunken log2 fold change” value read?
The value was -0.463.

For RRIRVRPPRLPRPRPRPKYCPRP, which “shrunken log2 fold change” value is on record?
Its value is -0.221.

RRIRLRPPRLPRPRPRPVAGPRP was tested. Which “shrunken log2 fold change” value did it give?
Its value is 0.0563.

Which “shrunken log2 fold change” value does the source give for RRIRLRPPRLPRPRPRPRAEPRP here?
Its value is 0.0944.

RRIRKRPPRLPRPRPRPNIPPRP was tested. Which “shrunken log2 fold change” value did it give?
The value was -0.237.

How did the “shrunken log2 fold change” value turn out when RRIRGRPPRLPRPRPRPNTTPRP was run?
The value was 0.325.

How did the “shrunken log2 fold change” value turn out when RRIRLRPPRLPRPRPRPEQRPRP was run?
Its value is 0.0422.

With RRIRTRPPRLPRPRPRPESRPRP as the sequence, how does the “shrunken log2 fold change” value read?
Its value is -0.0705.

With RRIRCRPPRLPRPRPRPHAKPRP as the sequence, how does the “shrunken log2 fold change” value read?
Its value is -0.446.

Which “shrunken log2 fold change” value does the source give for RRIRYRPPRLPRPRPRPTEYPRP here?
Its value is -0.204.

How did the “shrunken log2 fold change” value turn out when RRIRARPPRLPRPRPRPIPFPRP was run?
Its value is 0.00602.

RRIRCRPPRLPRPRPRPTSVPRP was tested. Which “shrunken log2 fold change” value did it give?
The value was 0.0631.

With RRIRARPPRLPRPRPRPTERPRP as the sequence, how does the “shrunken log2 fold change” value read?
The value was 0.502.

RRIRERPPRLPRPRPRPHFHPRP was tested. Which “shrunken log2 fold change” value did it give?
The value was -0.597.

Which “shrunken log2 fold change” value does the source give for RRIRSRPPRLPRPRPRPNPLPRP here?
Its value is 0.182.

Which “shrunken log2 fold change” value does the source give for RRIRTRPPRLPRPRPRPLCNPRP here?
Its value is -0.484.

For RRIRPRPPRLPRPRPRPRDWPRP, which “shrunken log2 fold change” value is on record?
The value was 0.531.

For RRIRIRPPRLPRPRPRPFSYPRP, which “shrunken log2 fold change” value is on record?
The value was 3.51.

For RRIRHRPPRLPRPRPRPTAIPRP, which “shrunken log2 fold change” value is on record?
Its value is -0.183.

With RRIRTRPPRLPRPRPRPQAAPRP as the sequence, how does the “shrunken log2 fold change” value read?
Its value is -0.0432.

How did the “shrunken log2 fold change” value turn out when RRIRERPPRLPRPRPRPTFIPRP was run?
Its value is -0.291.

How did the “shrunken log2 fold change” value turn out when RRIRWRPPRLPRPRPRPCFSPRP was run?
The value was -0.176.

For RRIRSRPPRLPRPRPRPHQTPRP, which “shrunken log2 fold change” value is on record?
Its value is -0.066.

How did the “shrunken log2 fold change” value turn out when RRIRARPPRLPRPRPRPKDGPRP was run?
Its value is 0.298.

RRIRHRPPRLPRPRPRPWYIPRP was tested. Which “shrunken log2 fold change” value did it give?
The value was -0.549.

Which “shrunken log2 fold change” value does the source give for RRIRQRPPRLPRPRPRPTKSPRP here?
Its value is 0.00581.

Which “shrunken log2 fold change” value does the source give for RRIRIRPPRLPRPRPRPVAAPRP here?
The value was 0.176.

For RRIRGRPPRLPRPRPRPHEIPRP, which “shrunken log2 fold change” value is on record?
The value was 0.0317.

For RRIRNRPPRLPRPRPRPGEFPRP, which “shrunken log2 fold change” value is on record?
The value was -0.00204.

RRIRHRPPRLPRPRPRPECEPRP was tested. Which “shrunken log2 fold change” value did it give?
The value was 0.16.

For RRIRDRPPRLPRPRPRPVDGPRP, which “shrunken log2 fold change” value is on record?
The value was 0.0169.

RRIRTRPPRLPRPRPRPGFHPRP was tested. Which “shrunken log2 fold change” value did it give?
The value was -0.19.

RRIRDRPPRLPRPRPRPHNRPRP was tested. Which “shrunken log2 fold change” value did it give?
The value was -0.00159.

For RRIRDRPPRLPRPRPRPTWDPRP, which “shrunken log2 fold change” value is on record?
Its value is 0.629.

RRIRVRPPRLPRPRPRPKKYPRP was tested. Which “shrunken log2 fold change” value did it give?
The value was -0.411.

Which “shrunken log2 fold change” value does the source give for RRIRLRPPRLPRPRPRPPNNPRP here?
The value was -0.106.

RRIRPRPPRLPRPRPRPIHKPRP was tested. Which “shrunken log2 fold change” value did it give?
The value was -0.561.

For RRIRFRPPRLPRPRPRPTLHPRP, which “shrunken log2 fold change” value is on record?
Its value is -0.0536.

Which “shrunken log2 fold change” value does the source give for RRIRHRPPRLPRPRPRPNCYPRP here?
The value was -0.0056.

With RRIRPRPPRLPRPRPRPNHFPRP as the sequence, how does the “shrunken log2 fold change” value read?
The value was -0.592.

RRIRLRPPRLPRPRPRPSVRPRP was tested. Which “shrunken log2 fold change” value did it give?
The value was 0.0468.

Which “shrunken log2 fold change” value does the source give for RRIRSRPPRLPRPRPRPLEAPRP here?
The value was 0.177.

With RRIRHRPPRLPRPRPRPTTHPRP as the sequence, how does the “shrunken log2 fold change” value read?
Its value is 0.0467.

How did the “shrunken log2 fold change” value turn out when RRIRRRPPRLPRPRPRPMIAPRP was run?
Its value is 0.121.

With RRIRIRPPRLPRPRPRPCRIPRP as the sequence, how does the “shrunken log2 fold change” value read?
The value was -0.0204.

With RRIRFRPPRLPRPRPRPMSCPRP as the sequence, how does the “shrunken log2 fold change” value read?
Its value is 0.0282.

RRIRARPPRLPRPRPRPFRWPRP was tested. Which “shrunken log2 fold change” value did it give?
Its value is -0.0369.

With RRIRMRPPRLPRPRPRPIWHPRP as the sequence, how does the “shrunken log2 fold change” value read?
The value was -0.0798.
